According to FireProtDB (doi:10.1016/j.jmb.2010.08.048):

B1: Glucocorticoid receptor, P04150 (parent)
chain: MDSKESLTPGREENPSSVLAQERGDVMDFYKTLRGGATVKVSASSPSLAVASQSDSKQRRLLVDFPKGSVSNAQQPDLSKAVSLSMGLYMGETETKVMGNDLGFPQQGQISLSSGETDLKLLEESIANLNRSTSVPENPKSSASTAVSAAPTEKEFPKTHSDVSSEQQHLKGQTGTNGGNVKLYTTDQSTFDILQDLEFSSGSPGKETNESPWRSDLLIDENCLLSPLAGEDDSFLLEGNSNEDCKPLILPDTKPKIKDNGDLVLSSPSNVTLPQVKTEKEDFIELCTPGVIKQEKLGTVYCQASFPGANIIGNKMSAISVHGVSTSGGQMYHYDMNTASLSQQQDQKPIFNVIPPIPVGSENWNRCQGSGDDNLTSLGTLNFPGRTVFSNGYSSPSMRPDVSSPPSSSSTATTGPPPKLCLVCSDEASGCHYGVLTCGSCKVFFKRAVEGQHNYLCAGRNDCIIDKIRRKNCPACRYRKCLQAGMNLEARKTKKKIKGIQQATTGVSQETSENPGNKTIVPATLPQLTPTLVSLLEVIEPEVLYAGYDSSVPDSTWRIMTTLNMLGGRQVIAAVKWAKAIPGFRNLHLDDQMTLLQYSWMFLMAFALGWRSYRQSSANLLCFAPDLIINEQRMTLPCMYDQCKHMLYVSSELHRLQVSYEEYLCMKTLLLLSSVPKDGLKSQELFDEIRMTYIKELGKAIVKREGNSSQNWQRFYQLTKLLDSMHEVVENLLNYCFQTFLDKTMSIEFPEMLAEIITNQIPKYSNGNIKKLLFHQK

Variants of: B1
Settings: Homo sapiens; pH 7.8; Thermal; CD; Tris-HCl 25mM; structure 1M2Z; whole UniProt chain shown

| Variant | Tm [°C] |
| --- | --- |
| A605V M752T V702A E705G | 54.4 |
| A605V M752T E705G | 52.9 |
| A605V M752T V702A | 53.6 |
| E705G | 46.6 |
| F602S A605V M752T M560K | 49.9 |
| F602S | 50.3 |
| M752T | 48.6 |
| F602S A605V | 54 |
| A605V | 49.3 |
| F602S A605V M752T V702A E705G | 58.6 |
| V702A | 47.2 |
| A605V M752T | 51.5 |
| F602S A605V M752T | 56 |
